{
  "source": "paper PMC8360651",
  "test_system": "VHH 9E (humanized single-domain antibody) (synthetic humanized VHH library NaLi-H1)",
  "test": "ELISA",
  "conditions": "ELISA: biotinylated DNA on avidin plates, 2 h binding, PBS/PBST washes (competition mix at RT). EMSA: PBS, 10% glycerol, RT 2 h, 8% native PAGE in TAE at 4 C. …",
  "data": [
    {"sequence": "AAAATACATTTATATATATCCTAGTCCGACCGCAGGATCCTATAA / TTATAGGATCCTGCGGTCGGACTAGGATATATATAAATGTA [41-mer dsDNA target (BIOTIN-R-CELL + O3-CELL)]", "values": [
      {"measurement": "binding signal", "setting": "pH 5", "value": 82, "unit": "%"},
      {"measurement": "K half", "setting": "serial dilutions of VHH on immobilized dsDNA, relative binding affinity", "value": 200, "unit": "nM"}
    ]}
  ]
}
